Measurements reported in PMC8698469, “A Combined Spectroscopic and In Silico Approach to Evaluate the Interaction of Human Frataxin with Mitochondrial Superoxide Dismutase” (Biomedicines, 2021).
Substitutions are numbered along the chain they refer to. Names may count otherwise.

T1: human mitochondrial superoxide dismutase (SOD2), His-tag recombinant protein (human, UniProt P04179 25-222)
T1 construct: Trp residues are printed as W78, W123, W125, W161, W181, W186; also called Mn-SOD; (SOD2)4; source: bought: Technical Novusbio (His-tag recombinant protein)
T1 sequence: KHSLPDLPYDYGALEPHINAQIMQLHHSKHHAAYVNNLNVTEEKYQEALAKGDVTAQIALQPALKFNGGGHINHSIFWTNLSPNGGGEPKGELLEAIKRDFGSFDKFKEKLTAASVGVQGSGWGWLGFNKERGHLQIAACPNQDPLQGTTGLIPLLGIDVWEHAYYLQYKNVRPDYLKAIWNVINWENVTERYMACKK

B1: human wild-type mature frataxin, FXN(90-210) (domain or fragment, UniProt Q16595 90-210, looked up)
chain: LDETTYERLAEETLDSLAEFFEDLADKPYTFEDYDVSFGSGVLTVKLGGDLGTYVINKQTPNKQIWLSSPSSGPKRYDWTGKNWVYSHDGVSLHELLAAELTKALKTKLDLSSLAYSGKDA
notes: human frataxin, residues 90-210 of the 210 amino acid precursor, from plasmid pET-9b/FXN(90-210); also called WT FXN; source: E. coli BL21 (DE3), purified (DEAE Sepharose ion exchange, SEC on Superdex 200)
B2: human FXN(90-210) A114C, spin-labelled with M-TETPO (domain or fragment, UniProt Q16595 90-210, looked up)
chain: B1 chain with A25C
modifications: M-TETPO nitroxide spin label on cysteine 114
notes: human frataxin, residues 90-210, native residue mutated to cysteine for spin labelling; source: E. coli BL21 (DE3), purified (DEAE Sepharose ion exchange, SEC), labelled with M-TETPO
B3: human FXN(90-210) A193C, spin-labelled with M-TETPO (domain or fragment, UniProt Q16595 90-210, looked up)
chain: B1 chain with A104C
modifications: M-TETPO nitroxide spin label on cysteine 193
notes: as for B2
B4: human FXN(90-210) H183C, spin-labelled with M-TETPO (domain or fragment, UniProt Q16595 90-210, looked up)
chain: B1 chain with H94C
modifications: M-TETPO nitroxide spin label on cysteine 183
notes: as for B2
B5: human FXN(90-210) T133C, spin-labelled with M-TETPO (domain or fragment, UniProt Q16595 90-210, looked up)
chain: B1 chain with T44C
modifications: M-TETPO nitroxide spin label on cysteine 133
notes: as for B2

Experiments:
[1] = molecular target: T1, human mitochondrial superoxide …; assay: tryptophan fluorescence quenching (mixture against the sum of the single spectra); both in solution; FXN 1.4 uM, SOD2 1.9 uM (FXN:(SOD2)4 1:0.34), 288 K, mix of 20 mM TRIS-HCl pH 8 and 25 mM HEPES pH 7.0, 50 mM KCl, under nitrogen; settings: both partners purified
[2] = molecular target: T1, human mitochondrial superoxide …; assay: SDSL-EPR (EPR spectra of spin-labelled protein, fitted rotational correlation time); both in solution; 10 uM spin-labelled FXN mutant without or with 40 uM SOD2 (FXN:(SOD2)4 1:1; also 1:0.5), room temperature, 18 uL SOD buffer (20 mM Tris HCl pH 8, 20% v/v glycerol) or SOD2 stock with 2 uL FXN stock, under nitrogen flow; settings: both partners purified

Binder | decrease in fluorescence quenching relative to the sum of the individual spectra [1] [%] | ΔτC (τC^+SOD − τC^−SOD) [2] [ns]
B1 | 17 | 
B2 |  | 0.44
B3 |  | 0.41
B4 |  | 0.56
B5 |  | 0.4
